Assays:
[1] = biological target: rHuman Notch-1/Fc Chimera, CF (R&D Systems Cat#3647-TK) (human) (UniProt P46531); experiment: ECL multispot (MSD) assay, antigen spotted on plate, 20 nM Fab
[2] = biological target: rHuman ErbB2/Fc Chimera, CF (R&D Systems Cat#1129-ER) (human) (UniProt P04626); experiment: ECL multispot (MSD) binding assay, antigen spotted on plate, Fab 0.04 uM
[3] = biological target: Recombinant Human DLL4 (R&D Systems Cat#1506-D4/CF) (human) (UniProt Q9NR61); experiment: ECL (MSD) binding assay, immobilised DLL4
[4] = biological target: Recombinant Human DLL4 (R&D Systems Cat#1506-D4/CF) (human) (UniProt Q9NR61); experiment: ELISA, DLL4 coated on plate, Fab at 2.22 nM
[5] = biological target: Recombinant Human DLL4 (R&D Systems Cat#1506-D4/CF) (human) (UniProt Q9NR61); experiment: ELISA, DLL4 coated on plate, Fab at 20 nM
[6] = biological target: Recombinant Human DLL4 (R&D Systems Cat#1506-D4/CF) (human) (UniProt Q9NR61); experiment: ELISA, DLL4 coated on plate, Fab at […]
[7] = biological target: Recombinant Human DLL4 (R&D Systems Cat#1506-D4/CF) (human) (UniProt Q9NR61); experiment: ELISA, DLL4 coated on plate, Fab at 0.74 nM
[8] = biological target: Recombinant Human DLL4 (delta-like protein 4) (human) (UniProt Q9NR61); experiment: ELISA, DLL4 coated on plate, Fab at 100 nM (2-fold dilution series), absorbance at 450 nm
[9] = biological target: Recombinant Human DLL4 (delta-like protein 4) (human) (UniProt Q9NR61); experiment: ELISA, DLL4 coated on plate, Fab at 12.5 nM (2-fold dilution series), absorbance at 450 nm
[10] = biological target: Recombinant Human DLL4 (delta-like protein 4) (human) (UniProt Q9NR61); experiment: ELISA, DLL4 coated on plate, Fab at 50 nM (2-fold dilution series), absorbance at 450 nm
[11] = biological target: Recombinant Human DLL4 (delta-like protein 4) (human) (UniProt Q9NR61); experiment: ELISA, DLL4 coated on plate, Fab at 25 nM (2-fold dilution series), absorbance at 450 nm
[12] = biological target: human Delta-like ligand 4 (DLL4), full-length, expressed on CHO cells (human) (UniProt Q9NR61); experiment: cell-based or functional assay

B1: Fab VH3-23_IGHD2-21*01>3_IGHJ6*01 H100E/S108P/Y113G T58A & V2-13_IGLJ2*01 (Fab, V domains shown)
VH: EVQLLESGGGLVQPGGSLRLSCAASGFTFSSYAMSWVRQAPGKGLEWVSSISGSGGSAYYADSVKGRFTISRDNSKNTLYLQMNSLRAEDTAVYYCAKEEIVVVIAIPYYYYGYGMDVWGQGTLVTVSS
VL: SSELTQDPAVSVALGQTVRITCQGDSLRSYYASWYQQKPGQAPVLVIYGKNNRPSGIPDRFSGSSSGNTASLTITGAQAEDEADYYCNSRDSSGNHLVVFGGGTKLTVL
ECL signal/blank ratio (read-out not given) [1]: 3.1

B2: Fab VH3-23_IGHD2-21*01>3_IGHJ6*01 H100E/S108P/Y113G D62A & V2-13_IGLJ2*01 (Fab, V domains shown)
VH: EVQLLESGGGLVQPGGSLRLSCAASGFTFSSYAMSWVRQAPGKGLEWVSSISGSGGSTYYAASVKGRFTISRDNSKNTLYLQMNSLRAEDTAVYYCAKEEIVVVIAIPYYYYGYGMDVWGQGTLVTVSS
VL: SSELTQDPAVSVALGQTVRITCQGDSLRSYYASWYQQKPGQAPVLVIYGKNNRPSGIPDRFSGSSSGNTASLTITGAQAEDEADYYCNSRDSSGNHLVVFGGGTKLTVL
ECL signal/blank ratio (read-out not given) [1]: 3.5

B3: Fab VH5-51_IGHD5-18*01>3_IGHJ4*01 G100K/G104T (H:KT) & V3-4_IGLJ1*01 L92A (Fab, V domains shown)
VH: EVQLVQSGAEVKKPGESLKISCKGSGYSFTSYWIGWVRQMPGKGLEWMGIIYPGDSDTRYSPSFQGQVTISADKSISTAYLQWSSLKASDTAMYYCARRKYSYTYDYFDYWGQGTLVTVSS
VL: QTVVTQEPSFSVSPGGTVTLTCGLSSGSVSTSYYPSWYQQTPGQAPRTLIYSTNTRSSGVPDRFSGSILGNKAALTITGAQADDESDYYCVAYMGSGISYVFGTGTKVTVL
ECL signal [2]: 1370

B4: Fab VH5-51_IGHD5-18*01>3_IGHJ4*01 G100K/G104T G24L/S28R/G35V & V3-4_IGLJ1*01 M94R/S96M (L:RM) (Fab, V domains shown)
VH: EVQLVQSGAEVKKPGESLKISCKLSGYRFTSYWIVWVRQMPGKGLEWMGIIYPGDSDTRYSPSFQGQVTISADKSISTAYLQWSSLKASDTAMYYCARRKYSYTYDYFDYWGQGTLVTVSS
VL: QTVVTQEPSFSVSPGGTVTLTCGLSSGSVSTSYYPSWYQQTPGQAPRTLIYSTNTRSSGVPDRFSGSILGNKAALTITGAQADDESDYYCVLYRGMGISYVFGTGTKVTVL
ECL signal [3]: 889

B5: Fab VH5-51_IGHD5-18*01>3_IGHJ4*01 G100K/G104T G24A/S28R/G35V & V3-4_IGLJ1*01 M94R/S96M (L:RM) (Fab, V domains shown)
VH: EVQLVQSGAEVKKPGESLKISCKASGYRFTSYWIVWVRQMPGKGLEWMGIIYPGDSDTRYSPSFQGQVTISADKSISTAYLQWSSLKASDTAMYYCARRKYSYTYDYFDYWGQGTLVTVSS
VL: QTVVTQEPSFSVSPGGTVTLTCGLSSGSVSTSYYPSWYQQTPGQAPRTLIYSTNTRSSGVPDRFSGSILGNKAALTITGAQADDESDYYCVLYRGMGISYVFGTGTKVTVL
ECL signal [3]: 1200

B6: Fab VH5-51_IGHD5-18*01>3_IGHJ4*01 G100K/G104T S28R & V3-4_IGLJ1*01 M94R/S96M (L:RM) (Fab, V domains shown)
VH: EVQLVQSGAEVKKPGESLKISCKGSGYRFTSYWIGWVRQMPGKGLEWMGIIYPGDSDTRYSPSFQGQVTISADKSISTAYLQWSSLKASDTAMYYCARRKYSYTYDYFDYWGQGTLVTVSS
VL: QTVVTQEPSFSVSPGGTVTLTCGLSSGSVSTSYYPSWYQQTPGQAPRTLIYSTNTRSSGVPDRFSGSILGNKAALTITGAQADDESDYYCVLYRGMGISYVFGTGTKVTVL
ECL signal [3]: 530

B7: Fab VH5-51_IGHD5-18*01>3_IGHJ4*01 G100K/G104T G24A/S28R/G35V (H:KT ARV) & V3-4_IGLJ1*01 M94R/S96M (L:RM) (Fab, V domains shown)
VH: EVQLVQSGAEVKKPGESLKISCKASGYRFTSYWIVWVRQMPGKGLEWMGIIYPGDSDTRYSPSFQGQVTISADKSISTAYLQWSSLKASDTAMYYCARRKYSYTYDYFDYWGQGTLVTVSS
VL: QTVVTQEPSFSVSPGGTVTLTCGLSSGSVSTSYYPSWYQQTPGQAPRTLIYSTNTRSSGVPDRFSGSILGNKAALTITGAQADDESDYYCVLYRGMGISYVFGTGTKVTVL
ELISA signal [4]: 0 | ELISA signal [5]: 0.006 | ELISA signal [6]: 0.034 | ELISA signal [7]: 0

B8: Fab VH5-51_IGHD5-18*01>3_IGHJ4*01 G100K/G104T G24L/S28R/G35V (H:KT LRV) & V3-4_IGLJ1*01 M94R/S96M (L:RM) (Fab, V domains shown)
VH: EVQLVQSGAEVKKPGESLKISCKLSGYRFTSYWIVWVRQMPGKGLEWMGIIYPGDSDTRYSPSFQGQVTISADKSISTAYLQWSSLKASDTAMYYCARRKYSYTYDYFDYWGQGTLVTVSS
VL: QTVVTQEPSFSVSPGGTVTLTCGLSSGSVSTSYYPSWYQQTPGQAPRTLIYSTNTRSSGVPDRFSGSILGNKAALTITGAQADDESDYYCVLYRGMGISYVFGTGTKVTVL
ELISA signal [4]: 0 | ELISA signal [5]: 0.003 | ELISA signal [6]: 0 | ELISA signal [7]: 0

B9: Fab VH5-51_IGHD5-18*01>3_IGHJ4*01 G100K/G104T G24L/S28R/G35V D109Q & V3-4_IGLJ1*01 (wildtype) (Fab, V domains shown)
VH: EVQLVQSGAEVKKPGESLKISCKTSGYRFTSYWIVWVRQMPGKGLEWMGIIYPGDSDTRYSPSFQGQVTISADKSISTAYLQWSSLKASDTAMYYCARRKYSYTYDYFQYWGQGTLVTVSS
VL: QTVVTQEPSFSVSPGGTVTLTCGLSSGSVSTSYYPSWYQQTPGQAPRTLIYSTNTRSSGVPDRFSGSILGNKAALTITGAQADDESDYYCVLYMGSGISYVFGTGTKVTVL
ELISA signal [8]: 0.3 | ELISA signal [9]: 0.24 | ELISA signal [10]: 0.25 | ELISA signal [11]: 0.22

B10: Fab VH5-51_IGHD5-18*01>3_IGHJ4*01 G100K/G104T G24L/S28R/G35V Y105H & V3-4_IGLJ1*01 (wildtype) (Fab, V domains shown)
VH: EVQLVQSGAEVKKPGESLKISCKTSGYRFTSYWIVWVRQMPGKGLEWMGIIYPGDSDTRYSPSFQGQVTISADKSISTAYLQWSSLKASDTAMYYCARRKYSYTHDYFDYWGQGTLVTVSS
VL: QTVVTQEPSFSVSPGGTVTLTCGLSSGSVSTSYYPSWYQQTPGQAPRTLIYSTNTRSSGVPDRFSGSILGNKAALTITGAQADDESDYYCVLYMGSGISYVFGTGTKVTVL
ELISA signal [8]: 0.23 | ELISA signal [9]: 0.21 | ELISA signal [10]: 0.2 | ELISA signal [11]: 0.19

B11: Fab VH5-51_IGHD5-18*01>3_IGHJ4*01 G100K/G104T G24A/S28R/G35V Y107F & V3-4_IGLJ1*01 (wildtype) (Fab, V domains shown)
VH: EVQLVQSGAEVKKPGESLKISCKTSGYRFTSYWIVWVRQMPGKGLEWMGIIYPGDSDTRYSPSFQGQVTISADKSISTAYLQWSSLKASDTAMYYCARRKYSYTYDFFDYWGQGTLVTVSS
VL: QTVVTQEPSFSVSPGGTVTLTCGLSSGSVSTSYYPSWYQQTPGQAPRTLIYSTNTRSSGVPDRFSGSILGNKAALTITGAQADDESDYYCVLYMGSGISYVFGTGTKVTVL
ELISA signal [8]: 0.28 | ELISA signal [9]: 0.21 | ELISA signal [10]: 0.24 | ELISA signal [11]: 0.2

B12: Fab VH5-51_IGHD5-18*01>3_IGHJ4*01 G100K/G104T G24T/S28R/G35V Y105N & V3-4_IGLJ1*01 (wildtype) (Fab, V domains shown)
VH: EVQLVQSGAEVKKPGESLKISCKTSGYRFTSYWIVWVRQMPGKGLEWMGIIYPGDSDTRYSPSFQGQVTISADKSISTAYLQWSSLKASDTAMYYCARRKYSYTNDYFDYWGQGTLVTVSS
VL: QTVVTQEPSFSVSPGGTVTLTCGLSSGSVSTSYYPSWYQQTPGQAPRTLIYSTNTRSSGVPDRFSGSILGNKAALTITGAQADDESDYYCVLYMGSGISYVFGTGTKVTVL
ELISA signal [8]: 0.25 | ELISA signal [9]: 0.21 | ELISA signal [10]: 0.18 | ELISA signal [11]: 0.19

B13: Fab VH6-1_IGHD6-13*01_IGHJ4*01 and V2-17_IGLJ2*01 (Fab, V domains shown)
VH: QVQLQQSGPGLVKPSQTLSLTCAISGDSVSSNSAAWNWIRQSPSRGLEWLGRTYYRSKWYNDYAVSVKSRITINPDTSKNQFSLQLNSVTPEDTAVYYCAREGYSSSWYDYFDYWGQGTLVTVSS
VL: SYELTQPPSVSVSPGQTARITCSGDALPKQYAYWYQQKPGQAPVLVIYKDSERPSGIPERFSGSSSGTTVTLTISGVQAEDEADYYCQSADSSGTYPVVFGGGTKLTVL
Notch1 luciferase reporter luminescence, T98G reporter cells + CHO-DLL4, 0.8 nM Fab, replicate 1 [12]: 4480 | Notch1 luciferase reporter luminescence, T98G reporter cells + CHO-DLL4, 0.8 nM Fab, replicate 2 [12]: 4540 | Notch1 luciferase reporter luminescence, T98G reporter cells + CHO-DLL4, 0.8 nM Fab, replicate 3 [12]: 3910 | Notch1 luciferase reporter luminescence, T98G reporter cells + CHO-DLL4, 0.8 nM Fab, replicate 4 [12]: 4220 | Notch1 luciferase reporter luminescence, T98G reporter cells + CHO-DLL4, 4 nM Fab, replicate 1 [12]: 4810 | Notch1 luciferase reporter luminescence, T98G reporter cells + CHO-DLL4, 4 nM Fab, replicate 2 [12]: 4920 | Notch1 luciferase reporter luminescence, T98G reporter cells + CHO-DLL4, 4 nM Fab, replicate 3 [12]: 4190 | Notch1 luciferase reporter luminescence, T98G reporter cells + CHO-DLL4, 4 nM Fab, replicate 4 [12]: 4520 | Notch1 luciferase reporter luminescence, T98G reporter cells + CHO-DLL4, 20 nM Fab, replicate 1 [12]: 5400 | Notch1 luciferase reporter luminescence, T98G reporter cells + CHO-DLL4, 20 nM Fab, replicate 2 [12]: 4990 | Notch1 luciferase reporter luminescence, T98G reporter cells + CHO-DLL4, 20 nM Fab, replicate 3 [12]: 4320 | Notch1 luciferase reporter luminescence, T98G reporter cells + CHO-DLL4, 20 nM Fab, replicate 4 [12]: 4550 | Notch1 luciferase reporter luminescence, T98G reporter cells + CHO-DLL4, 100 nM Fab, replicate 1 [12]: 4820 | Notch1 luciferase reporter luminescence, T98G reporter cells + CHO-DLL4, 100 nM Fab, replicate 2 [12]: 4810 | Notch1 luciferase reporter luminescence, T98G reporter cells + CHO-DLL4, 100 nM Fab, replicate 3 [12]: 4030 | Notch1 luciferase reporter luminescence, T98G reporter cells + CHO-DLL4, 100 nM Fab, replicate 4 [12]: 4470
